Data published in publication PMC2756588.

Tests used:
Test in all cases: SPOT array
[1] = target: T1, Cdc25, P04821; conditions: median of control spots 969
T1 sequence (P04821 50-136, looked up): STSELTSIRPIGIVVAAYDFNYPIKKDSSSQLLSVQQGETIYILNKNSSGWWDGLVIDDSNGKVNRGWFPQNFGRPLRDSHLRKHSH

[2] = target: T2, Pex13, P80667; conditions: median of control spots 1341
T2 sequence (P80667 295-386, looked up): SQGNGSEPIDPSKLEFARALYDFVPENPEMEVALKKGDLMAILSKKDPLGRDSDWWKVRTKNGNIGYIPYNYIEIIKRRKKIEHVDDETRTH

[3] = target: T3, Bbc1, P47068; conditions: median of control spots 796
T3 sequence (P47068 1-78, looked up): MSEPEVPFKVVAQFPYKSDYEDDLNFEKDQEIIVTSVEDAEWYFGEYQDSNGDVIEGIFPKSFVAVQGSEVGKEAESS

[4] = target: T4, Sla1-2, P32790; conditions: median of control spots 712
T4 sequence (P32790 60-140, looked up): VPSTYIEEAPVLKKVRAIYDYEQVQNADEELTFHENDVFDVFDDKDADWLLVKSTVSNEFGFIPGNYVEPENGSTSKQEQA

[5] = target: T5, Sla1-3, P32790; conditions: median of control spots 5475
T5 sequence (P32790 344-424, looked up): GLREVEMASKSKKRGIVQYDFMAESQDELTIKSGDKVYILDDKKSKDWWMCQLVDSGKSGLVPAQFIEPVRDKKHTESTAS

[6] = target: Rvs167, P39743; conditions: median of control spots 2707
Sequence of Rvs167, P39743 (P39743 419-482): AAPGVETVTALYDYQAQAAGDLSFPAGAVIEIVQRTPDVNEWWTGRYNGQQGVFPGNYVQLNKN

[7] = target: Bem1-2, P29366; conditions: median of control spots 4347
Sequence of Bem1-2, P29366 (P29366 139-227): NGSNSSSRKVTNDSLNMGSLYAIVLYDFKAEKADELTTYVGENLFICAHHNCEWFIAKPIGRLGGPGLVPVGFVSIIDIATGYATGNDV

[8] = target: T6, Lsb3, P43603; conditions: median of control spots 406
T6 sequence (P43603 385-451, looked up): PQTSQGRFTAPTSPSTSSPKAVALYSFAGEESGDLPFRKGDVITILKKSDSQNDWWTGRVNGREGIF

[9] = target: T7, Abp1, P15891; conditions: median of control spots 935
T7 sequence (P15891 535-592, looked up): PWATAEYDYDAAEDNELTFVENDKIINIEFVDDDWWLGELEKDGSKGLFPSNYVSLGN

[10] = target: T8, Pin3, Q06449; conditions: median of control spots 2171
T8 sequence (Q06449 53-122, looked up): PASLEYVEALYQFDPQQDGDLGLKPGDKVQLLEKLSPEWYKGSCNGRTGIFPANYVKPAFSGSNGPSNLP

[11] = target: T9, Nbp2, Q12163; conditions: median of control spots 357
T9 sequence (Q12163 103-180, looked up): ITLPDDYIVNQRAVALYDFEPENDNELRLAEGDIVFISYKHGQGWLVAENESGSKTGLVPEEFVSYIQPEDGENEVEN

[12] = target: T10, Fus1, P11710; conditions: median of control spots 1200
T10 sequence (P11710 432-512, looked up): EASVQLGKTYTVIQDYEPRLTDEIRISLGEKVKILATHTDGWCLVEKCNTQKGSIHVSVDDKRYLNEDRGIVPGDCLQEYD

[13] = target: T11, Boi1, P38041; conditions: median of control spots 1162
T11 sequence (P38041 1-86, looked up): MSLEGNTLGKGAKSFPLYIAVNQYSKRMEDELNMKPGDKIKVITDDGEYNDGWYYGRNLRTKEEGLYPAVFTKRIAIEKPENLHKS

[14] = target: T12, Cyk3, Q07533; conditions: median of control spots 1451
T12 sequence (Q07533 1-83, looked up): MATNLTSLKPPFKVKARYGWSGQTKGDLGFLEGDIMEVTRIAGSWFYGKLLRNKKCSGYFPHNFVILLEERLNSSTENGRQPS

[15] = target: T13, Hse1, P38753; conditions: median of control spots 1727
T13 sequence (P38753 208-285, looked up): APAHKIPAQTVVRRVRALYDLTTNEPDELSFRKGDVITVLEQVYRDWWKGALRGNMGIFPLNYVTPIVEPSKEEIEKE

[16] = target: T14, Hof1, Q05080; conditions: median of control spots 4086
T14 sequence (Q05080 590-669, looked up): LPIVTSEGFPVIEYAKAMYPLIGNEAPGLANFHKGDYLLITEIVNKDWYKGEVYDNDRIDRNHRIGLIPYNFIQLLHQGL

[17] = target: T15, Bzz1-1, P38822; conditions: median of control spots 4446
T15 sequence (P38822 478-572, looked up): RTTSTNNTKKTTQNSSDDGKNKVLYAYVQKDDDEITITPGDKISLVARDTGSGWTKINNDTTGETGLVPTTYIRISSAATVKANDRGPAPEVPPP

[18] = target: Myo3, P36006; conditions: median of control spots 468
[19] = target: T16, Lsb4, P32793; conditions: median of control spots 397
T16 sequence (P32793 402-468, looked up): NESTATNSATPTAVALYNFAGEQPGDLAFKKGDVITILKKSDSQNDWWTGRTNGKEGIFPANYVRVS

[20] = target: T17, Lsb1, P53281; conditions: median of control spots 388
T17 sequence (P53281 45-122, looked up): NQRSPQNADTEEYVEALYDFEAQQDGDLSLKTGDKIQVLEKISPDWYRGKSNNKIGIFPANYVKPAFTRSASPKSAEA

[21] = target: T18, Bzz1-2, P38822; conditions: median of control spots 4538
T18 sequence (P38822 568-633, looked up): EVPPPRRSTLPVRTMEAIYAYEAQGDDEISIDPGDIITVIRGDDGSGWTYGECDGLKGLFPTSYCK

[22] = target: GST; conditions: median of control spots 978
[23] = target: T19, Bud14, P27637; conditions: median of control spots 956
T19 sequence (P27637 247-328, looked up): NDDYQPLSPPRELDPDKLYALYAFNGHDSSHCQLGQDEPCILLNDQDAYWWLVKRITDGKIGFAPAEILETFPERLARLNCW

[24] = target: Sho1, P40073; conditions: median of control spots 1148
Sequence of Sho1, P40073 (P40073 287-367): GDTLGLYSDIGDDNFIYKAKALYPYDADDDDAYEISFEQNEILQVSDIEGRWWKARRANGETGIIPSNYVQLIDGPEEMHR

[25] = target: T20, Boi2, P39969; conditions: median of control spots 1161
T20 sequence (P39969 32-116, looked up): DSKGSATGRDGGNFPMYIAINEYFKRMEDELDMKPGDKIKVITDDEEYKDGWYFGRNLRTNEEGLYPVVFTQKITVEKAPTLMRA

[26] = target: Bem1-1, P29366; conditions: median of control spots 4282
Sequence of Bem1-1, P29366 (P29366 55-141): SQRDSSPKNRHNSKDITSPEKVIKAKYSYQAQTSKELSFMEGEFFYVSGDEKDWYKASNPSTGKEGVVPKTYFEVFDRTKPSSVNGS

[27] = target: T21, Myo5, Q04439; conditions: median of control spots 471
T21 sequence (Q04439 1072-1160, looked up): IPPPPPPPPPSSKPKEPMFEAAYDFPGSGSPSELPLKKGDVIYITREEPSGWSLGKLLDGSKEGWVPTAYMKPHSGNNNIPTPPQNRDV

SRQAIPPPVPNRPGG gave an SPOT intensity [1] of 0, an SPOT intensity [2] of 133 and an SPOT intensity [3] of 247. The SPOT intensity [4] was 0, the SPOT intensity [5] was 3 and the SPOT intensity [6] was 833. For the same binder, the SPOT intensity [7] was 3, the SPOT intensity [8] was 658 and the SPOT intensity [9] was 24. The SPOT intensity [10] was 55, the SPOT intensity [11] was 1 and the SPOT intensity [12] was 1. The SPOT intensity [13] was 0, the SPOT intensity [14] was 1 and the SPOT intensity [15] was 22. For the same binder, the SPOT intensity [16] was 1, the SPOT intensity [17] was 3 and the SPOT intensity [18] was 63. The SPOT intensity [19] was 373, the SPOT intensity [20] was 1590 and the SPOT intensity [21] was 0. It also gave an SPOT intensity [22] of 0, an SPOT intensity [23] of 0 and an SPOT intensity [24] of 14. For the same binder, the SPOT intensity [25] was 0, the SPOT intensity [26] was 1 and the SPOT intensity [27] was 21.

NQARKPFLLPATELS gave an SPOT intensity [1] of 16, an SPOT intensity [2] of 0 and an SPOT intensity [3] of 30. For the same binder, the SPOT intensity [4] was 1, the SPOT intensity [5] was 2 and the SPOT intensity [6] was 0. For the same binder, the SPOT intensity [7] was 1, the SPOT intensity [8] was 0 and the SPOT intensity [9] was 18. It also gave an SPOT intensity [10] of 4, an SPOT intensity [11] of 4 and an SPOT intensity [12] of 0. It also gave an SPOT intensity [13] of 3, an SPOT intensity [14] of 3 and an SPOT intensity [15] of 4. It also gave an SPOT intensity [16] of 5, an SPOT intensity [17] of 0 and an SPOT intensity [18] of 1. It also gave an SPOT intensity [19] of 0, an SPOT intensity [20] of 576 and an SPOT intensity [21] of 0. For the same binder, the SPOT intensity [22] was 2, the SPOT intensity [23] was 19 and the SPOT intensity [24] was 38. For the same binder, the SPOT intensity [25] was 0, the SPOT intensity [26] was 0 and the SPOT intensity [27] was 1.

Binder YYNRQELALPKRMSS has an SPOT intensity [1] of 0, an SPOT intensity [2] of 16 and an SPOT intensity [3] of 8. It also gave an SPOT intensity [4] of 2, an SPOT intensity [5] of 7 and an SPOT intensity [6] of 21. The SPOT intensity [7] was 0, the SPOT intensity [8] was 24 and the SPOT intensity [9] was 14. The SPOT intensity [10] was 327, the SPOT intensity [11] was 1 and the SPOT intensity [12] was 6. It also gave an SPOT intensity [13] of 1, an SPOT intensity [14] of 3 and an SPOT intensity [15] of 2. The SPOT intensity [16] was 1, the SPOT intensity [17] was 0 and the SPOT intensity [18] was 11. It also gave an SPOT intensity [19] of 45, an SPOT intensity [20] of 819 and an SPOT intensity [21] of 4. It also gave an SPOT intensity [22] of 3, an SPOT intensity [23] of 3 and an SPOT intensity [24] of 9. It also gave an SPOT intensity [25] of 1, an SPOT intensity [26] of 0 and an SPOT intensity [27] of 5.

NRPAIRIPSLKKPAL was tested, and the SPOT intensity [1] was 5, the SPOT intensity [2] was 5 and the SPOT intensity [3] was 40. It also gave an SPOT intensity [4] of 0, an SPOT intensity [5] of 14 and an SPOT intensity [6] of 0. It also gave an SPOT intensity [7] of 12, an SPOT intensity [8] of 0 and an SPOT intensity [9] of 74. For the same binder, the SPOT intensity [10] was 9, the SPOT intensity [11] was 2 and the SPOT intensity [12] was 1. For the same binder, the SPOT intensity [13] was 1, the SPOT intensity [14] was 0 and the SPOT intensity [15] was 20. The SPOT intensity [16] was 13, the SPOT intensity [17] was 3 and the SPOT intensity [18] was 3. For the same binder, the SPOT intensity [19] was 6, the SPOT intensity [20] was 467 and the SPOT intensity [21] was 0. The SPOT intensity [22] was 1, the SPOT intensity [23] was 13 and the SPOT intensity [24] was 39. The SPOT intensity [25] was 0, the SPOT intensity [26] was 1 and the SPOT intensity [27] was 2.
